System: O=C(Cc1cccs1)N[C@@H]1C(=O)N2C(C(=O)O)=C(/C=C/c3ccc([N+](=O)[O-])cc3[N+](=O)[O-])CS[C@H]12
Assay: purified protein
Settings: 50 mM NaH2PO4 pH 7.0, 0.1% BSA, 30 °C, 10-100 μM nitrocefin

How did the Km turn out when “BLA (TEM-1 β-lactamase) (Escherichia coli)” was run?
The Km was 120 ± 3 µM.

What about the kcat of the same substance?
Its kcat is 1200 ± 30 s⁻¹.

— PMC4748275, “SpyRing interrogation: analyzing how enzyme resilience can be achieved with phytase and distinct cyclization chemistries” (Scientific Reports, 2016)
